In paper PMC4222909, “The Porphyromonas gingivalis Ferric Uptake Regulator Orthologue Binds Hemin and Regulates Hemin-Responsive Biofilm Development” (PLoS ONE, 2014):
Residue numbers refer to the chain shown, from its start. Numbers in names are those of the source.

B1: Zn(II)Har, recombinant Porphyromonas gingivalis Har (heme associated regulator, Fur orthologue PGN_1503) (natural protein, Porphyromonas gingivalis ATCC 33277, UniProt B2RKX7 1-166, looked up)
chain: MIVTSLEDLRSRLRAYVSENGLRHTPERYSILEVAYNLKKIFTPDDLFDLTRENGLPVSLSTVYNTLTLLERCGIVLRLPSPETKYQYLMASFAEQCPLLFCTECAQFSTYYRRNVKSILADKDLRPPRFSYRQALICLYGICDKCRKKQSALKKAADKAAPKKKK
notes: Har (Fur family transcriptional regulator), P. gingivalis ATCC 33277, gene PGN_1503 (501 bp), full length; Factor Xa site (IEGR) immediately before the start of har; Measured mass of apo-Har 19157.46 Da fits the theoretical 19157.20 Da; also called PgHar; rHar; source: E. coli BL21(DE3), purified (GSTrap, on-column Factor Xa cleavage, cation exchange, size exclusion); not shown: GST, N-terminal, …
B2: Zn(II)C97A, recombinant P. gingivalis Har with Cys97 substituted with Ala (natural protein)
chain: B1 chain with C97A
notes: also called HarC97A; source: E. coli BL21(DE3), purified (GSTrap, on-column Factor Xa cleavage, cation exchange, size exclusion); not shown: GST, N-terminal, cleaved
B3: Zn(II)Har150, recombinant P. gingivalis Har truncated by 16 amino acids at the C-terminus (domain or fragment)
chain: MIVTSLEDLRSRLRAYVSENGLRHTPERYSILEVAYNLKKIFTPDDLFDLTRENGLPVSLSTVYNTLTLLERCGIVLRLPSPETKYQYLMASFAEQCPLLFCTECAQFSTYYRRNVKSILADKDLRPPRFSYRQALICLYGICDKCRKKQ
notes: source: E. coli BL21(DE3), purified (GSTrap, on-column Factor Xa cleavage, cation exchange, size exclusion); not shown: GST, N-terminal, cleaved

How the values were obtained:
[1] = molecular target: T1, Zn(II)Har150 (Porphyromonas gingivalis ATCC 33277) (UniProt B2RKX7); assay: EMSA
T1 sequence: B3 chain

[2] = molecular target: T1, Zn(II)Har150 (Porphyromonas gingivalis ATCC 33277); assay: competition
[3] = molecular target: the molecule itself; assay: SEC

Molecule | binding [1] | binding [2] | stoichiometry N [3]
GGTGTTGATAACTCGGTCGCGCCTTGGTCGGCTTTCGTATAAGTGTCTGGAATGCAGTGGAATAGCGTTGTTTCCTTCGCTGTTTATATCTCAAGGTTATAACCATCTGAAAACAATATAGATACGATTCATCTGAATTATACTACACTTTTTGTCGATTGTTTTTTTACTCTTTTGTTTGAACCTTTGCTATCCCCAAAGGAGCAATGAACGACTGCTCTCAAAACGATATTTTTTTAG (double strand) [FAM-dnaA (PGN_0001) promoter] | binds |  | 
GGTGTTGATAACTCGGTCGCGCCTTGGTCGGCTTTCGTATAAGTGTCTGGAATGCAGTGGAATAGCGTTGTTTCCTTCGCTGTTTATATCTCAAGGTTATAACCATCTGAAAACAATATAGATACGATTCATCTGAATTATACTACACTTTTTGTCGATTGTTTTTTTACTCTTTTGTTTGAACCTTTGCTATCCCCAAAGGAGCAATGAACGACTGCTCTCAAAACGATATTTTTTTAG (double strand) [dnaA (PGN_0001) promoter 240 bp] | binds | binds | 
B1 |  |  | 2
B2 |  |  | 2
B3 |  |  | 2
